Assay results from publication PMC4991852, “The Sac3 TPR-like region in the Saccharomyces cerevisiae TREX-2 complex is more extensive but independent of the CID region” (Journal of Structural Biology, 2016).

T1: Sac3 (residues 140-805) (S. cerevisiae, UniProt P46674 140-805)
T1 construct: Sac3, S. cerevisiae, residues 140-805 by the complex's name; the text says that residues 1-140 were deleted; also called Sac3 of TREX-2^140–805
T1 sequence (looked up): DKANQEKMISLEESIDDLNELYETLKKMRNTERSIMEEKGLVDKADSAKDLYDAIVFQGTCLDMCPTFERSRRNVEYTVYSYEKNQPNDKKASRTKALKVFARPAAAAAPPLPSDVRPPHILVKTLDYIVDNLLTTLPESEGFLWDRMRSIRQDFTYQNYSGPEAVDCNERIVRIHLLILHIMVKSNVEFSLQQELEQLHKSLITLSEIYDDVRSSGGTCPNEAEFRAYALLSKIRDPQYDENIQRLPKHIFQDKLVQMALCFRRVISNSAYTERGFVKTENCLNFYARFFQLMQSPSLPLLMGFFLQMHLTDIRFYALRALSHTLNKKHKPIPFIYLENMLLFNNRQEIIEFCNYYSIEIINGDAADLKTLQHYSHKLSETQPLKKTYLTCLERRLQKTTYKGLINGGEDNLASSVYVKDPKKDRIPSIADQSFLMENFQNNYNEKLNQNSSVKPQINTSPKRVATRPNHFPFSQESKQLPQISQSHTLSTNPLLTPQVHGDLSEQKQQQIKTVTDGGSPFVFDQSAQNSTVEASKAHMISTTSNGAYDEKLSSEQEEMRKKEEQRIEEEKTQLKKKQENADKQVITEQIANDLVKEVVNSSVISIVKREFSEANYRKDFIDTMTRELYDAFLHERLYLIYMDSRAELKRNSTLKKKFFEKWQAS


target: T1, Sac3 (residues 140-805); experiment: SEC-SAXS; on-line HPLC with Superdex 200 Increase 3.2/300, beamline BM29 (ESRF), 20 °C; mass from I(0) against a BSA standard; conditions: both partners purified

Binder	binding result
Sus1 (natural protein, S. cerevisiae, UniProt Q6WNK7 1-96, looked up, Sus1, S. cerevisiae; source: Sf9, baculovirus, co-expressed with GST-Sac3; in lysate and purified with the complex (glutathione Sepharose, heparin, SEC)) MTMDTAQLKSQIQQYLVESGNYELISNELKARLLQEGWVDKVKDLTKSEMNINESTNFTQILSTVEPKALEMVSDSTRETVLKQIREFLEEIVDTQ	binds
Sem1 (natural protein, S. cerevisiae, UniProt O94742 1-89, looked up, Sem1, S. cerevisiae; source: Sf9, baculovirus, co-expressed with GST-Sac3; in lysate and purified with the complex (glutathione Sepharose, heparin, SEC)) MSTDVAAAQAQSKIDLTKKKNEEINKKSLEEDDEFEDFPIDTWANGETIKSNAVTQTNIWEENWDDVEVDDDFTNELKAELDRYKRENQ	binds
Thp1 (natural protein, S. cerevisiae, UniProt Q08231 1-455, looked up, Thp1, S. cerevisiae; The theoretical mass of 195 kDa for TREX-2^1-805 fits whole chains of the four small subunits; source: Sf9, baculovirus, co-expressed with GST-Sac3; in lysate and purified with the complex (glutathione Sepharose, heparin, SEC)) MDMANQLLDELAHGNFSHLTLNLSQNGREIAILQKQLTGFDDKQLETFVEQHPAMPNDTRFKIMCTSFLNYARDVDPWSAWSSSDLIFEFYQCLINCLINDNAPHIEMLIPVATRETEFIINLAGKLDSFHLQLHTRSHQFLSHISSILSRLFNSIKPPRGNASSTNIPGKQRILLYLVNKLNNIYFRIESPQLCSNIFKNFQPKSMLAHFNEYQLDQQIEYRYLLGRYYLLNSQVHNAFVQFNEAFQSLLNLPLTNQAITRNGTRILNYMIPTGLILGKMVKWGPLRPFLSQETIDNWSVLYKHVRYGNIQGVSLWLRQNERHLCARQLLIVLLEKLPMVTYRNLIKTVIKSWTTEWGQNKLPYSLIERVLQLSIGPTFEDPGAQEITIYNGIHSPKNVENVLVTLINLGLLRANCFPQLQLCVVKKTTMIQEIVPPVNERITKMFPAHSHVLW	binds
Cdc31 (natural protein, S. cerevisiae, UniProt P06704 1-161, looked up, Cdc31, S. cerevisiae; source: Sf9, baculovirus, co-expressed with GST-Sac3; in lysate and purified with the complex (glutathione Sepharose, heparin, SEC)) MSKNRSSLQSGPLNSELLEEQKQEIYEAFSLFDMNNDGFLDYHELKVAMKALGFELPKREILDLIDEYDSEGRHLMKYDDFYIVMGEKILKRDPLDEIKRAFQLFDDDHTGKISIKNLRRVAKELGETLTDEELRAMIEEFDLDGDGEINENEFIAICTDS	binds
